The values below come from US20220348685A1 (ACCELERON PHARMA, published 2022).

The experiment deals with T1, human ALK7-EK-Fc comprising protein (human, UniProt Q8NER5 22-113).
T1 construct: also called ALK7-Fc comprising protein; Human ALK7-Fc comprising protein; not shown: 'EK' segment between ALK7 and Fc; Fc portion
T1 sequence: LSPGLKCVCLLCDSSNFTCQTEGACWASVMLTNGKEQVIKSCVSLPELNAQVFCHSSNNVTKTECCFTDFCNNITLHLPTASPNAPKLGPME
Put plainly: SPR (Biacore T100/T200), antibody captured on FAB chip, ALK7-Fc protein as analyte, 1:1 model. As to the method: Experiments were performed using a Biacore T100/T200 biosensor (Biacore/GE Healthcare) at 25 and 37° C. ALK7 antibodies were captured on custom made FAB chip. A concentration series of ALK7-Fc comprising protein was injected over the flow cells at a flow rate of […]. To obtain kinetic rate constants the corrected data were fit to a 1:1 interaction model using BiaEvaluation software (GE Healthcare). The equilibrium binding constant KD was determined by the ratio of binding rate constants kd/ka.

Substitutions are numbered along the chain they refer to.

B1: M01 (antibody, V domains shown)
VH: QLQLQESGPGLVKPSETLSLTCTVSGGSISSSAYYWAWIRQPPGKGLEWIGSIYLSGSTTYNPSLKSRVTISVDTSKNQFSLKLSSVTAADTAVYYCARDGRYQSRSPDYYYGMDVWGQGTTVTVSS
VL: EIVLTQSPGTLSLSPGERATLSCRASQSVSDNYLAWYQQKPGQAPRLLIYGASNIATGIPDRFSGSGSGTDFTLTISRLEPEDFAVYYCASVFSYPFTFGGGTKVEIK
notes: Kappa light chain is implied by the anti-kappa reagent and KappaSelect; In SPR the antibody was captured on a custom FAB chip; also called ALK7 mAb M01
The term Kd denotes a measure of binding affinity in units of concentration. For orientation: koff means the first-order rate constant of dissociation. Usually kon stands for the second-order rate constant of association. The low end stands for slow association, the high end for fast association. B1 yielded a Kd of 1 nM, a koff of 4.32e-05 s⁻¹ and a kon of 43100 M⁻¹ s⁻¹.

B2: N02 (antibody, V domains shown)
VH: B1 VH
VL: B1 VL with D31S, N32S, N54S, I55T, T57Y, A90Q, S91Q, V92L, F93V, S94A
As to B2, the Kd worked out at 0.87 nM, the koff came to 5.2e-05 s⁻¹ and the kon is 59800 M⁻¹ s⁻¹.

B3: P03 (antibody, V domains shown)
VH: QVQLVQSGAEVKKPGASVKVSCKASGYTFAGYNMHWVRQAPGQGLEWVGIINPNSGWTNYAQKFQGRVTMTRDTSVSAAYMELSRLRSDDTAVYYCARDPVGARYEVFDYWGQGTLVTVSS
VL: EIVMTQSPATLSVSPGERATLSCQASQSVSSNLAWYQQKPGQAPRLLIYGASTIATGIPARFSGSGSGTEFTLTISSLQSEDFAVYYCQQAYAFPLTFGGGTKVEIK
Turning to B3, binding was put at a Kd of 0.39 nM, the koff is 1.43e-05 s⁻¹ and the kon came to 36600 M⁻¹ s⁻¹.

B4: Q04 (antibody, V domains shown)
VH: B3 VH
VL: B3 VL with Q24K, I54R, Y92V, A93K
Take B4: the Kd came out at 1.42 nM, the dissociation rate constant (koff) is 4.7e-05 s⁻¹ and the kon came out at 33100 M⁻¹ s⁻¹.
